The supplement of paper PMC12042874
± gives the uncertainty stated by the source.

assay: amyloid nucleation score (Sup35N fusion, yeast selection) (log enrichment); library NNK3; higher = more nucleation; inactive = no reads after selection
Outline: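 Peptides of 20 random codons fused to Sup35N were expressed in psi-negative yeast, induced 24 hours with 100 μM copper sulfate, then grown 7 days at 30°C on medium lacking adenine and uracil. Input and output plasmid inserts were Illumina-sequenced. Nucleation score is the DiMSum log enrichment of output over input reads, centred on the mode score of non-aggregating sequences, excluding sequences with under 100 input reads. Random libraries had three technical output replicates.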

| Substance | amyloid nucleation score |
| --- | --- |
| FVFRHYSRPDIFQDGKKSAN | 1.08 ± 0.15 |
| LLIGSGVSYFKTWFARHLTA | inactive |
| GVAELMGVWDVKLVVPLEES | inactive |
| AGPKALIVMPKICDGDIWME | inactive |
| RRWTTEVKQVHDYCG | inactive |
| SSDQRASPGWGFLFHKCAQV | inactive |
| FCIQSVFCCT | 2.88 ± 0.071 |
| VVFENLDRAFVYRRLDPIRC | inactive |
| RSEWQMTRNYRVWGCYI | inactive |
| QAIGIRICSK | inactive |
| YLVYNYFMRDHWGLSVYLSR | 0.641 ± 0.18 |
| HSCMCKSLNASLMVDVRLPR | inactive |
| WQICSGA | inactive |
| SKAMWLSLM | inactive |
| CRTSHSWVMYWLRREMCY | inactive |
| VEHHDFSRSSSAYTRVL | inactive |
| AIKYILRAALNLNSSSTELE | inactive |
| WLFRRVGMVTHAWMYWFKSR | inactive |
| CLVPFAGQWHTVEIMMSSCQ | inactive |
| KIGSLVKECCGLPVYYALLK | inactive |
| NCIECRTDTYW | inactive |
| YFYKNLSSFHFGKMRLK | inactive |

| Substance | amyloid nucleation score |
| --- | --- |
| FADVGTEFSCQEVNMKTHPS | inactive |
| RYFSFELKLMLISELYVMAV | inactive |
| FNSILIVSLHLFSGFDSMR | 1.86 ± 0.093 |
| MCSAEA | inactive |
| ILMELPRRRMWSLKALSLMY | inactive |
| SSVGMARAYL | -1.17 ± 1.9 |
| SSNLFVHHTSFTWASSTPHR | inactive |
| LSRLGWYRFCTIMGCYFWIL | inactive |
| DWRAVLLGITSFA | inactive |
| LIFFWSIEA | inactive |
| RVSWGARVHIWCSLDLVCRF | inactive |
| NWDWADE | inactive |
| SMASGRSALIKVV | inactive |
| LSYYVS | inactive |
| FLMWVSR | 1.08 ± 0.12 |
| WNFNRVYHFLTIEMF | inactive |
| ESFPEFVEVGICR | inactive |
| FSFMLSDTGLSVFSSVYDEA | inactive |
| SYRPMHTDGLSLYSRQNLSY | inactive |
| SVEMIPDSGLSVRMGFEGLV | inactive |
| ANCKG | inactive |
| SLMLGYETFFMPCGQDMAKW | inactive |

| Substance | amyloid nucleation score |
| --- | --- |
| RKHAGLYLQYE | inactive |
| SACECAPTTSRIRPGSSATR | inactive |
| CGSWYSCCKNINEVARSYTG | inactive |
| ALVLNRVLRLDVGVSSGCRL | inactive |
| DVSYYERGSSVHYTHSD | inactive |
| HSSIVWKRYSIYFVKNGGTF | inactive |
| SCTRIVY | inactive |
| SLTEQNL | inactive |
| VLSFRSRTSKNKFRGAQGVT | inactive |
| TFSPVGMISLYCYGT | -0.065 ± 0.45 |
| QFNMKVFMHDWWRLLLPKSK | inactive |
| IYYHIETSSAVASWYWRCAT | inactive |
| SVSARSRRLWGSMRIAVTVF | inactive |
| FYWSLNSYVCASCMILFALM | inactive |
| IRCRQNPGSHVIRYFCCRRS | inactive |
| WYGVVDVDW | inactive |
| CFPLSVK | inactive |
| VNDWWVSGW | inactive |
| LNPVKKLLGRLSGSREG | inactive |
| CLRLGLIMDTKK | inactive |
| ECPAALLKKIVPYKKLHGRM | inactive |
